Results from US20170246252A1.

Target: endogenous mIL-10 receptors (R1 and R2) on MC/9 mouse mast cells (mouse) (UniProt Q61727)
Experiment: cell-based or functional assay

Chain of UniProt Q61727 (Q61727 17-575, chain 1 of 2): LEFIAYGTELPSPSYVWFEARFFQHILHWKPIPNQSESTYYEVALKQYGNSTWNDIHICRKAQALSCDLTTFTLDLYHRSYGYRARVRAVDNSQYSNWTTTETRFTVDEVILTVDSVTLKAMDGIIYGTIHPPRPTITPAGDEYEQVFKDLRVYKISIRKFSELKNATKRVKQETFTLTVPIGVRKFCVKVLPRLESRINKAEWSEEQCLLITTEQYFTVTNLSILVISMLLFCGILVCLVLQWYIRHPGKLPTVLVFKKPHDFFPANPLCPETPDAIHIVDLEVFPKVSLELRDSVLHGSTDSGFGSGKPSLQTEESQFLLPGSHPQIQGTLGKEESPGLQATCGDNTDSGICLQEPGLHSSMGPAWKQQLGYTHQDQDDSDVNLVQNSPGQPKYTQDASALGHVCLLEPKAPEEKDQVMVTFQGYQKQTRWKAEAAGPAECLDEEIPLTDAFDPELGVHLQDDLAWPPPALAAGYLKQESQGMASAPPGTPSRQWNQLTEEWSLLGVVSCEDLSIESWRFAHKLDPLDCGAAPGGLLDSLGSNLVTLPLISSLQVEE
Chain of UniProt Q61727 (Q61190 20-349, chain 2 of 2, further chain): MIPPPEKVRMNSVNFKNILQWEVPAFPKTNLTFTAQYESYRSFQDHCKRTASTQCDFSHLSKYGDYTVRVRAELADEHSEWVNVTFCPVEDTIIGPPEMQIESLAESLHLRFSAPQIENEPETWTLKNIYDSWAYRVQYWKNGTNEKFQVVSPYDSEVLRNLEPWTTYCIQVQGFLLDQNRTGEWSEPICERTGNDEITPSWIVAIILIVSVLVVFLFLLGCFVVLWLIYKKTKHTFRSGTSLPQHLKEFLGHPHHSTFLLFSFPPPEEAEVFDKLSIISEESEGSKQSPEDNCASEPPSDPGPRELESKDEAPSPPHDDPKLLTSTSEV

EC50 (ng/mL) in MC/9 Assay (proliferation with mIL-4 co-stimulation, Alamar Blue) [ng/mL]	specific activity in the MC/9 bioassay relative to mIL-10 [fold lower]	Substance
4.04	7	PEG-mIL-10 (from UniProt P18893 19-178) (ligand)
0.571	–	Murine IL-10 (from UniProt P18893 19-178) (ligand)
